Measured values published in paper PMC5593919, “Functional characterization of Vip3Ab1 and Vip3Bc1: Two novel insecticidal proteins with differential activity against lepidopteran pests” (Scientific Reports, 2017).

Legend:
[1] = target: Vip3_AB chimera (N-terminal domain of Vip3Ab1 and C-terminal domain of Vip3Bc1) (Bacillus thuringiensis); test: SEC; analytical SEC, TSKgel SuperSW3000, 50 mM sodium phosphate pH 7.0 with 250 mM NaCl, 75 µl/min, 3 µl at 150 µg/ml, fluorescence detection; size from retention time against molecular weight standards; proteins not digested
[2] = target: Vip3Ab1 after overnight processing with H. zea midgut enzymes (~20 kDa and ~65 kDa products together) (Bacillus thuringiensis); test: SEC; purified Vip3 protein digested overnight with H. zea gut fluid (50 mM MOPS pH 10, 30 °C), stopped with protease inhibitors, then analytical SEC on TSKgel SuperSW3000 in 50 mM sodium phosphate pH 7.0 with 250 mM NaCl; size from retention time
[3] = target: C-terminal ~65 kDa domain of Vip3Ab1, expressed from Leu222 (Bacillus thuringiensis); test: SEC; analytical SEC, TSKgel SuperSW3000, 50 mM sodium phosphate pH 7.0 with 250 mM NaCl, 75 µl/min, 3 µl at 150 µg/ml, fluorescence detection; size from retention time against molecular weight standards; proteins not digested
[4] = target: Vip3_BA chimera (N-terminal domain of Vip3Bc1 and C-terminal domain of Vip3Ab1) (Bacillus thuringiensis); test: as above
[5] = target: Vip3Ab1 (Bacillus thuringiensis); test: as above
[6] = target: the molecule itself; test: as above
[7] = target: T1, ~65 kDa C-terminal product of Vip3Bc1 after gut enzyme processing (Bacillus thuringiensis, UniProt A0A290WPI2 214-803); test: SEC; purified Vip3 protein digested overnight with H. zea gut fluid (50 mM MOPS pH 10, 30 °C), stopped with protease inhibitors, then analytical SEC on TSKgel SuperSW3000 in 50 mM sodium phosphate pH 7.0 with 250 mM NaCl; size from retention time; conditions: both partners purified
T1 construct: Vip3Bc1, GenBank MF543028, product from the cleavage 210NVTK/EVIE (processed at 214Glu); source: Vip3Bc1 from Pseudomonas fluorescens, purified, then digested overnight with H. zea gut enzymes
T1 sequence: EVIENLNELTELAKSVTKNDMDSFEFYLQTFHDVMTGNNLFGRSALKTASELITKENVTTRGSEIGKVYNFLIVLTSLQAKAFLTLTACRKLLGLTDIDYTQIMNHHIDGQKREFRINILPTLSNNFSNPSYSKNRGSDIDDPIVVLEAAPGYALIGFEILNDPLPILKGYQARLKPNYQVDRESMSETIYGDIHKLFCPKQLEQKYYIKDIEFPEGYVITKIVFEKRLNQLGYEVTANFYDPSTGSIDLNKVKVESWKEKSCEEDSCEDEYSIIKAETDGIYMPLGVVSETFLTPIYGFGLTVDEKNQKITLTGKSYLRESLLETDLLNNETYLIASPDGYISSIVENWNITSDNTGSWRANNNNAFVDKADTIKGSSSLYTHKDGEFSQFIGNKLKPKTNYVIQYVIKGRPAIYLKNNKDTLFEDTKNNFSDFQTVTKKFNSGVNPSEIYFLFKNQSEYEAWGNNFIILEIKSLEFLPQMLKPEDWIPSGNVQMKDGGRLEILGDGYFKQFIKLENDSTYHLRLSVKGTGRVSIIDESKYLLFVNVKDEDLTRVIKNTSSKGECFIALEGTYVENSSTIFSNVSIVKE

[8] = target: the molecule itself; test: as above

In the case of “Vip3_AB chimera (N-terminal domain of Vip3Ab1 and C-terminal domain of Vip3Bc1) (from UniProt A0A290WPI2 224-803)”, the stoichiometry N [1] is reported as 4.

Molecule “Vip3Ab1 after overnight processing with H. zea midgut enzymes (~20 kDa and ~65 kDa products together) (complex)” has a stoichiometry N [2] of 4.

In the case of “C-terminal ~65 kDa domain of Vip3Ab1, expressed from Leu222 (domain or fragment)”, the stoichiometry N [3] is reported as 2.

“Vip3_BA chimera (N-terminal domain of Vip3Bc1 and C-terminal domain of Vip3Ab1) (from UniProt A0A290WPI2 2-223)” showed a percent tetrameric [4] of 50% and a stoichiometry N [4] of 4.

Work on Vip3Ab1 (natural protein) yielded a stoichiometry N [5] of 4.

B1: C-terminal ~65 kDa domain of Vip3Bc1, expressed from Leu222 (domain or fragment)
chain: LTELAKSVTKNDMDSFEFYLQTFHDVMTGNNLFGRSALKTASELITKENVTTRGSEIGKVYNFLIVLTSLQAKAFLTLTACRKLLGLTDIDYTQIMNHHIDGQKREFRINILPTLSNNFSNPSYSKNRGSDIDDPIVVLEAAPGYALIGFEILNDPLPILKGYQARLKPNYQVDRESMSETIYGDIHKLFCPKQLEQKYYIKDIEFPEGYVITKIVFEKRLNQLGYEVTANFYDPSTGSIDLNKVKVESWKEKSCEEDSCEDEYSIIKAETDGIYMPLGVVSETFLTPIYGFGLTVDEKNQKITLTGKSYLRESLLETDLLNNETYLIASPDGYISSIVENWNITSDNTGSWRANNNNAFVDKADTIKGSSSLYTHKDGEFSQFIGNKLKPKTNYVIQYVIKGRPAIYLKNNKDTLFEDTKNNFSDFQTVTKKFNSGVNPSEIYFLFKNQSEYEAWGNNFIILEIKSLEFLPQMLKPEDWIPSGNVQMKDGGRLEILGDGYFKQFIKLENDSTYHLRLSVKGTGRVSIIDESKYLLFVNVKDEDLTRVIKNTSSKGECFIALEGTYVENSSTIFSNVSIVKE
notes: Vip3Bc1, GenBank MF543028, beginning at Leu222; also called C-terminus of Vip3Bc1; C-terminal region of Vip3Bc1; source: Pseudomonas fluorescens, purified
In the case of B1, the “stoichiometry N” value [6] is reported as 2.

B2: ~20 kDa N-terminal product of Vip3Bc1 after gut enzyme processing (domain or fragment)
chain: ALPSFIDYFNGIYGFATGIKDIMGMIFKTDTGGSNLTLDEILKNQNLLNDISGKLDGINGDLGDLIAQGNLNSELAKELLKISNEQNQMLNHVNAQLNAINSTLNIYLPKITSMLNEVMKQNHVLSLQIEFLSKQLQEISDKLDIINLNVLINSTLTEITPAYQRIKYVNEKFDELTSTVEKNPKSYQDNVTK
notes: Vip3Bc1, GenBank MF543028, product between the cleavage at 21Ala and the cleavage 210NVTK/EVIE (processed at 214Glu); source: Vip3Bc1 from Pseudomonas fluorescens, purified, then digested overnight with H. zea gut enzymes
B2: binds [7].

B3: Vip3Bc1 after overnight processing with H. zea midgut enzymes (~20 kDa and ~65 kDa products together) (complex)
chain 1: ALPSFIDYFNGIYGFATGIKDIMGMIFKTDTGGSNLTLDEILKNQNLLNDISGKLDGINGDLGDLIAQGNLNSELAKELLKISNEQNQMLNHVNAQLNAINSTLNIYLPKITSMLNEVMKQNHVLSLQIEFLSKQLQEISDKLDIINLNVLINSTLTEITPAYQRIKYVNEKFDELTSTVEKNPKSYQDNVTK
chain 2: EVIENLNELTELAKSVTKNDMDSFEFYLQTFHDVMTGNNLFGRSALKTASELITKENVTTRGSEIGKVYNFLIVLTSLQAKAFLTLTACRKLLGLTDIDYTQIMNHHIDGQKREFRINILPTLSNNFSNPSYSKNRGSDIDDPIVVLEAAPGYALIGFEILNDPLPILKGYQARLKPNYQVDRESMSETIYGDIHKLFCPKQLEQKYYIKDIEFPEGYVITKIVFEKRLNQLGYEVTANFYDPSTGSIDLNKVKVESWKEKSCEEDSCEDEYSIIKAETDGIYMPLGVVSETFLTPIYGFGLTVDEKNQKITLTGKSYLRESLLETDLLNNETYLIASPDGYISSIVENWNITSDNTGSWRANNNNAFVDKADTIKGSSSLYTHKDGEFSQFIGNKLKPKTNYVIQYVIKGRPAIYLKNNKDTLFEDTKNNFSDFQTVTKKFNSGVNPSEIYFLFKNQSEYEAWGNNFIILEIKSLEFLPQMLKPEDWIPSGNVQMKDGGRLEILGDGYFKQFIKLENDSTYHLRLSVKGTGRVSIIDESKYLLFVNVKDEDLTRVIKNTSSKGECFIALEGTYVENSSTIFSNVSIVKE
notes: Vip3Bc1 ~20 kDa product, as m9; Vip3Bc1 ~65 kDa product, as m10; Vip3Bc1 was processed much more slowly than Vip3Ab1; also called processed Vip3Bc1; source: Vip3Bc1 from Pseudomonas fluorescens, purified, then digested overnight with H. zea gut enzymes; copies: 4 + 4
With B3 the “stoichiometry N” value [8] was 4.

B4: Vip3Bc1 (natural protein)
chain: VQKWMQRMIIVDNNKLNVRALPSFIDYFNGIYGFATGIKDIMGMIFKTDTGGSNLTLDEILKNQNLLNDISGKLDGINGDLGDLIAQGNLNSELAKELLKISNEQNQMLNHVNAQLNAINSTLNIYLPKITSMLNEVMKQNHVLSLQIEFLSKQLQEISDKLDIINLNVLINSTLTEITPAYQRIKYVNEKFDELTSTVEKNPKSYQDNVTKEVIENLNELTELAKSVTKNDMDSFEFYLQTFHDVMTGNNLFGRSALKTASELITKENVTTRGSEIGKVYNFLIVLTSLQAKAFLTLTACRKLLGLTDIDYTQIMNHHIDGQKREFRINILPTLSNNFSNPSYSKNRGSDIDDPIVVLEAAPGYALIGFEILNDPLPILKGYQARLKPNYQVDRESMSETIYGDIHKLFCPKQLEQKYYIKDIEFPEGYVITKIVFEKRLNQLGYEVTANFYDPSTGSIDLNKVKVESWKEKSCEEDSCEDEYSIIKAETDGIYMPLGVVSETFLTPIYGFGLTVDEKNQKITLTGKSYLRESLLETDLLNNETYLIASPDGYISSIVENWNITSDNTGSWRANNNNAFVDKADTIKGSSSLYTHKDGEFSQFIGNKLKPKTNYVIQYVIKGRPAIYLKNNKDTLFEDTKNNFSDFQTVTKKFNSGVNPSEIYFLFKNQSEYEAWGNNFIILEIKSLEFLPQMLKPEDWIPSGNVQMKDGGRLEILGDGYFKQFIKLENDSTYHLRLSVKGTGRVSIIDESKYLLFVNVKDEDLTRVIKNTSSKGECFIALEGTYVENSSTIFSNVSIVKE
notes: Vip3Bc1, vegetative insecticidal protein of Bacillus thuringiensis, GenBank MF543028; expressed with only the first methionine removed (N-terminus VQKWM at 2); Gene was synthesized, codon biased for maize; source: Pseudomonas fluorescens, purified (ammonium sulfate precipitation, anion exchange)
For B4, the “stoichiometry N” value [6] was 4.
